Measured values reported in PMC9368738, “The Mechanistic Understanding of RAD51 Defibrillation: A Critical Step in BRCA2-Mediated DNA Repair by Homologous Recombination” (International Journal of Molecular Sciences, 2022).
Several values for one entry are separate records, joined by “and”; a condition that tells them apart may be missing. Identical values can stand only once. Values belong to the molecule of their own block, whether it stands above or below them.

Assays:
RAD51 = conditions: pull-down assays; cited from earlier work
Text: This information comes from the only 3D structure of the RAD51-BRC4 interaction (PBD 1NOW).

[1] = test system: RAD51 foci in BxPC-3 cell nuclei; experiment: Immunofluorescence detection of RAD51 nuclear foci; format: cell-based; conditions: 1.5 h
Protocol: General cell culture. BxPC-3 cells (purchased from ATCC) were grown in RPMI 1640 containing 10% FBS, 100 U/mL penicillin–streptomycin, and 2 mM glutamine. All media and supplements were from Sigma-Aldrich. Cultures were routinely tested for mycoplasma contamination. Immunofluorescence. Immunofluorescence was used to study RAD51 nuclear translocation. To visualize RAD51 in cell nuclei, BxPC-3 cells were seeded on glass coverslips placed in a 6-well culture plate (2 × 10^5 cells/well) and allowed to adhere for 24 h. […] The medium was then removed to eliminate the chemotherapeutic agents, and cells were maintained in the presence of 5 µM BRC4myr for an additional 4 h. After this time, cells were fixed with PBS containing PFA 4% for 15 min, permeabilized in 70% ethanol, and then washed twice in PBS. […] After washing, coverslips were incubated in secondary anti-rabbit rhodamine-labelled antibody (Novus Biologicals, 1:1000 in 1% BSA/PBS) for 30 min at 37 °C, washed, air-dried, and mounted in a solution 2 µg/mL DAPI in DABCO. Images were acquired using a Nikon fluorescent microscope equipped with filters for TRITC and DAPI. The percentage of cells bearing nuclear foci was estimated by analyzing approximately 300 cells for each treatment sample.

[2] = target: T1, RAD51 fibrils (full-length recombinant human RAD51) (Homo sapiens, UniProt Q06609); experiment: Static light scattering (SLS / CG-MALS) of BRC4-induced RAD51 defibrillation; format: biochemical; conditions: RAD51 6.25 µM = 0.25 mg/mL; very significant stoichiometric excesses of peptide
T1 construct: The full-length human RAD51 was expressed in E. coli Rosetta2(DE3) pLysS cells; made in house; host or cells: E. coli Rosetta2(DE3) pLysS, pET15b plasmid
T1 sequence (Q06609 1-339): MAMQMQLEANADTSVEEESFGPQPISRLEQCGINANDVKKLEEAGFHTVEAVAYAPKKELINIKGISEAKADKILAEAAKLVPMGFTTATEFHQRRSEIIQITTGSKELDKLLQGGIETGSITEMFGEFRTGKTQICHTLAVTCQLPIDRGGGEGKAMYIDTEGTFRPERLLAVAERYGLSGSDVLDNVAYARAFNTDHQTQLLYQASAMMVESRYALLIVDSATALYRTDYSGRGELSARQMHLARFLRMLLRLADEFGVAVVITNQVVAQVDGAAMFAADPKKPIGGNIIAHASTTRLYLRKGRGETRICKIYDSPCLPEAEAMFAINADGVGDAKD
Protocol: Static light scattering (SLS) and composition-gradient multi-angle static light scattering (CG-MALS). Measurements were carried out using a Calypso automated delivery system as a mixing unit, connected to a Dawn Heleos II multi-angle light scattering (MALS) and a T-rEX refractive index (RI) detector, both operating at 660 nm (all instruments produced by Wyatt Technology, Santa Barbara, CA, USA). […] Injection volume and flow rate were fixed at 0.8 mL and 1 mL/min, respectively. A delay time of 180 s was set between each injection.

[3] = target: T2, 6xHis-RAD51 (full-length recombinant human RAD51) (Homo sapiens, UniProt Q06609); experiment: Microscale thermophoresis (MST); format: binding; conditions: highest concentration tested 400 μM; data not shown
T2 construct: The full-length human RAD51 was expressed in E. coli Rosetta2(DE3) pLysS cells; made in house; host or cells: E. coli Rosetta2(DE3) pLysS, pET15b plasmid
T2 sequence (Q06609 1-339): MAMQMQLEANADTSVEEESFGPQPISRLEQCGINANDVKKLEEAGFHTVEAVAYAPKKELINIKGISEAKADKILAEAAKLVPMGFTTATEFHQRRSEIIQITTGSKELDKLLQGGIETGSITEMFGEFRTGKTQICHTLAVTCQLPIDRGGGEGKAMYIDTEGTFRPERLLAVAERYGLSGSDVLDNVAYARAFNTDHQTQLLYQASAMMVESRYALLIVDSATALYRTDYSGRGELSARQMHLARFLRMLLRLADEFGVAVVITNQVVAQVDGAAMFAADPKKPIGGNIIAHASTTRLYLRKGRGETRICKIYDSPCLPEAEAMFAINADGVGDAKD

RAD51 fibrils = experiment: Negative staining TEM of RAD51 fibrils; format: biochemical, human; conditions: large stoichiometric excess of peptide; RAD51 0.1 mg/mL (2.5 µM); incubation 2 h at 4 °C
Protocol: After incubation, each sample was adsorbed into pure carbon film 300-mesh copper grids (Electron Microscopy Sciences, Hatfield, PA, USA). After several washes in RAD51 storage buffer (20 mM Hepes (pH 8.00), 250 mM KCl, 0.1 mM EDTA, 2 mM DTT, 10% (v/v) glycerol), each sample was negatively stained using 1% uranyl acetate in MQ water. […] In total, more than 2500 fibrils from different negative staining experiments were measured for quantification.

[4] = target: full-length recombinant human RAD51 (N-terminal 6xHis-tagged) (human) (UniProt Q06609)
RAD51 (Homo sapiens) = RAD51 (Homo sapiens) (UniProt Q06609); experiment: GST pull-down; conditions: cited from earlier work
[5] = target: T3, full-length recombinant human RAD51 (N-terminal 6xHis-tagged) (human), Q06609; experiment: static light scattering (CG-MALS, Zimm plots); RAD51 alone at five concentrations between 0.1 and 0.35 mg/mL (2.5-8.75 µM); 20 mM HEPES pH 8, 0.1 mM EDTA, 250 mM KCl, 5% glycerol, 2 mM DTT; conditions: remark: other sources report otherwise
T3 chain: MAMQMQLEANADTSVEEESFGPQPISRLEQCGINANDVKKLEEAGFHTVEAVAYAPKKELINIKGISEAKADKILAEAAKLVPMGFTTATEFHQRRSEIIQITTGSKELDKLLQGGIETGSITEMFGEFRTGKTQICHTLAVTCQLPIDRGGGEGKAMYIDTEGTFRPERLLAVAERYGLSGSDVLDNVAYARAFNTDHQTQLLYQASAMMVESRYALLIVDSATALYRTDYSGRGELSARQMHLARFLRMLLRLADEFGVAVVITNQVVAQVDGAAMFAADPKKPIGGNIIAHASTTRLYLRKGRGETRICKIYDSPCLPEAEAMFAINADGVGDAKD

[6] = target: T4, full-length recombinant human RAD51 (N-terminal 6xHis-tagged) (human, UniProt Q06609 1-339); experiment: MST; RED-tris-NTA-labelled 6xHis-RAD51 constant (25 nM in the methods, 100 nM in the results), 16 concentrations of BRC4 up to 32 µM; apparent Kd bounded by the lowest EC50 (titration regime); conditions: both partners purified
T4 construct: RAD51, human, full length; recombinase of 339 amino acids, about 40 kDa as monomer; Forms fibrils (homo-oligomers) without DNA; for MST labelled on the His tag with RED-tris-NTA 2nd Generation dye; also called His-RAD51; 6xHis-RAD51; source: E. coli Rosetta2(DE3) pLysS, pET15b, purified (His-Trap, anion exchange); not shown: His6, N-terminal, kept
T4 sequence (looked up): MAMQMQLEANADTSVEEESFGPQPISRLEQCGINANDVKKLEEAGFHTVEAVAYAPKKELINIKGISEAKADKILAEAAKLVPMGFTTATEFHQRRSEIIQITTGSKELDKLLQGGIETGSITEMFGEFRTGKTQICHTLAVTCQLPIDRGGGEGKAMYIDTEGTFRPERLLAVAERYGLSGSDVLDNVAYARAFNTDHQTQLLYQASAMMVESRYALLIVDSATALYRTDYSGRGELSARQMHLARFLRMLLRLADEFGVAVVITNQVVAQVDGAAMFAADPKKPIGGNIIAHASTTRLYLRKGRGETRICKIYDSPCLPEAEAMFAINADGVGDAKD

[7] = target: T4, full-length recombinant human RAD51 …; experiment: static light scattering + other: dynamic light scattering + MST; midpoint of BRC4-induced RAD51 defibrillation against the BRC4/RAD51 molar ratio, RAD51 6.25 µM (SLS, DLS) or 100 nM (MST); conditions: both partners purified
[8] = target: T4, full-length recombinant human RAD51 …; experiment: static light scattering (CG-MALS) + other: dynamic light scattering; RAD51 constant at 0.25 mg/mL (6.25 µM) with BRC4 or scBRC4 from 0 to 0.19 mg/mL (48 µM); 20 mM HEPES pH 8, 0.1 mM EDTA, 250 mM KCl, 5% glycerol, 2 mM DTT; DLS at 25 °C; step constants kd and kd1 from a defibrillation model fitted to the apparent weight average mass; conditions: both partners purified
[9] = target: T4, full-length recombinant human RAD51 …; experiment: negative-staining TEM with streptavidin-gold labelling; 0.1 mg/mL (2.5 µM) 6xHis-RAD51 with biotinylated BRC4 (non-labelled BRC4 as control) on grids, streptavidin-gold; conditions: both partners purified

Molecule: BRCA2: large protein (3418 amino acids) that interacts with RAD51 through eight BRC repeats
BRCA2-RAD51 binding affinity (RAD51): nanomolar affinity

Molecule: COc1cccc2c1C(=O)c1c(O)c3c(c(O)c1C2=O)C[C@@](O)(C(=O)CO)C[C@@H]3O[C@H]1C[C@H](N)[C@H](O)[C@H](C)O1 [doxorubicin]
RAD51 nuclear foci, doxorubicin alone ([1]; 200 nM doxorubicin): large number of nuclear RAD51 foci

Molecule: N.N.[Cl][Pt][Cl] [cisplatin]
RAD51 nuclear foci, cisplatin alone ([1]; 50 µM cisplatin): large number of nuclear RAD51 foci

binding to RAD51 (MST) [3]: no binding
Molecule: scBRC4: BRC4 (35 residues) peptide, carrying a double mutation [F1524A, T1526A] (KEPTLLGAHAASGKKVKIAKESLDKVKNLFDEKEQ)
apparent weight average mass versus no-interaction prediction [2]: followed the theoretical “no-interaction” prediction
RAD51 fibrils in TEM (RAD51 fibrils): the fibrils were still visible

homologous recombination (HR) assay in BxPC-3 cells, IC50 of HR inhibition [4]: 10 µM
homologous recombination (HR) assay in BxPC-3 cells, percent HR inhibition at 5, 10 and 30 µM BRC4myr [4]: 85.1%
Molecule: myristoylated BRC4 peptide (BRC4myr)

Molecule: BRCA2 BRC4 (from UniProt P51587)
Kd (RAD51 (Homo sapiens)): 1500 nM

stoichiometry N (protomers per aggregate) [5]: 40 and 70
B1: full-length recombinant human RAD51 (N-terminal 6xHis-tagged), Q06609 1-339 (natural protein)
chain: MAMQMQLEANADTSVEEESFGPQPISRLEQCGINANDVKKLEEAGFHTVEAVAYAPKKELINIKGISEAKADKILAEAAKLVPMGFTTATEFHQRRSEIIQITTGSKELDKLLQGGIETGSITEMFGEFRTGKTQICHTLAVTCQLPIDRGGGEGKAMYIDTEGTFRPERLLAVAERYGLSGSDVLDNVAYARAFNTDHQTQLLYQASAMMVESRYALLIVDSATALYRTDYSGRGELSARQMHLARFLRMLLRLADEFGVAVVITNQVVAQVDGAAMFAADPKKPIGGNIIAHASTTRLYLRKGRGETRICKIYDSPCLPEAEAMFAINADGVGDAKD

Kd [6]: ≤ 60 nM
stoichiometry N [7]: 1 BRC4 per RAD51
kd (each step of loss of a RAD51 unit from a fibril, from the defibrillation model) [8]: 33.7 ± 0.5 dimensionless
B2: BRC4 peptide (residues 1517-1551 of BRCA2) (peptide)
peptide: KEPTLLGFHTASGKKVKIAKESLDKVKNLFDEKEQ
notes: BRCA2, fourth BRC repeat, residues 1517-1551, MW 3957.6 Da; also called fourth BRC repeat of BRCA2; source: bought: Thermo Fisher Scientific (synthetic peptide)

binding result [9]: binds
B3: biotinylated BRC4 peptide (peptide)
peptide: KEPTLLGFHTASGKKVKIAKESLDKVKNLFDEKEQ
modifications: biotin (position not given)
notes: BRCA2, fourth BRC repeat, residues 1517-1551, as BRC4; also called labelled peptide; source: bought: Thermo Fisher Scientific (synthetic peptide, BRC4 derivative)
